# According to article PMC11286566:
# Assays:
# [1] = target: Catcher-Ferritin (Catcher of the isopeptide linkage system, flexible linker, Ferritin NP subunit); assay: SDS-PAGE densitometry of the covalent conjugate; catcher-Ferritin and gE-Tag mixed at a 1:6 molar ratio, 24 h at 4°C; uncoupled gE-Tag removed by SEC (Superdex 200 Increase, 20 mM Tris-HCl, 25% sucrose w/v, pH 7.4); coupling efficiency by densitometry of reduced SDS-PAGE; isopeptide bond between Tag and Catcher
# [2] = target: Catcher-AP205 (Catcher of the isopeptide linkage system, flexible linker, bacteriophage AP205 VLP subunit) (bacteriophage AP205); assay: SDS-PAGE densitometry of the covalent conjugate; catcher-AP205 and gE-Tag mixed at a 1:2 molar ratio, 24 h at 22°C, then dialysed into 50 mM glycine, 25 mM sodium citrate, 0.1% Tween 20, pH 6.2; coupling efficiency by densitometry of reduced SDS-PAGE; isopeptide bond between Tag and Catcher
substance,measurement,setting,value
gE-Tag (extracellular domain of VZV glycoprotein E with a C-terminal Tag of the isopeptide linkage system) (from UniProt P09259 31-544),conjugation efficiency,[1],> 70%
same,conjugation efficiency,[2],> 70%
